{
  "source": "patent US20160152676A1",
  "biological_target": "gp41 of HIV-1 IIIB virus (HIV-1 IIIB) (UniProt P04578)",
  "assay": "cell-based or functional assay",
  "data": [
    {"substance": "C34-ELMO (from UniProt Q92556 553-675) (designed binder)", "values": [
      {"measurement": "inhibition of HIV-1 infection in cellulo (GFP+ CEM-GFP cells, flow cytometry); concentration at which some inhibition is seen", "result": 250, "unit": "nM"}
    ]}
  ]
}
